From PMC11758712

Legend:
[1] = biological target: monomeric ACE2 (a.a 19-611), C-terminally His-tagged (human) (UniProt Q9BYF1); assay: mass photometry
[2] = biological target: HEK-derived SARS-CoV-2 Wuhan-Hu-1 spike receptor-binding domain (RBDHEK) (SARS-CoV-2 (Wuhan-Hu-1)) (UniProt P0DTC2); assay: mass photometry

Sequence of monomeric ACE2 (a.a 19-611), C-terminally His-tagged (human) (Q9BYF1 19-611): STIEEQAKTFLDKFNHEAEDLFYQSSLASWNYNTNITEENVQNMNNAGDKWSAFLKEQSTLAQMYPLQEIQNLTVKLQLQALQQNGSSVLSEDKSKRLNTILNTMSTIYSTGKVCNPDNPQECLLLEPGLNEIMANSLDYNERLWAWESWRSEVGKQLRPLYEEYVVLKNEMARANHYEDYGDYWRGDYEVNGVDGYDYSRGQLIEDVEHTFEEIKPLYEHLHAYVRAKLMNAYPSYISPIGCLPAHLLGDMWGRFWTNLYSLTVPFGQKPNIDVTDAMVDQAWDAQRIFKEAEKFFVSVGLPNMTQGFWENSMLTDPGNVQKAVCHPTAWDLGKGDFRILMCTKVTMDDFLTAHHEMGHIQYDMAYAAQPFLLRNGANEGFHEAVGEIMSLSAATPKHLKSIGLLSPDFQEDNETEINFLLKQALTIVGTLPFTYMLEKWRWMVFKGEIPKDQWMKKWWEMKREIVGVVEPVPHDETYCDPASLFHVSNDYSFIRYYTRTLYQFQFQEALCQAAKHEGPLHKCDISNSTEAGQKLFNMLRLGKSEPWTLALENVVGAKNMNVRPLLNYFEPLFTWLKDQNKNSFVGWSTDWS

Question: How did the binding occupancy [1] turn out when “HEK-derived SARS-CoV-2 Wuhan-Hu-1 spike receptor-binding domain (RBDHEK) (from UniProt P0DTC2 319-541) (domain or fragment)” was run?
Answer: 33%

Question: What about the percent dimeric species [2] of the same substance?
Answer: 19.6%

Question: What about the stoichiometry N [2] of the same substance?
Answer: 2
